B1: YPEL3 (parent)
chain: SKPKTFQAYLDDCHRRYSCAHCRA
B2: RAB22A (parent)
chain: FVEDSFDPNINPTIGASFMTKTVQ
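Also: lentivirally expressed fusions sorted by FACS into six bins by GFP to DsRed ratio, PSI derived from sequencing read proportions per bin multiplied by bin number.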

The variants in the first data set derive from B1. Description: protein stability index of a GFP-peptide fusion (GPS, HEK-293T) (PSI 1-6); higher = more stable. The note with it: c terminus: a fixed tail appended.
As to SKPKTFQAYLDDCHRRYSKAHCRA, the protein stability index turned out to be 2.64.
On the same count and under the same terms, the figure for SKPKTFQAYLDDCHRRYSGAHCRA is 2.68; for SKPKTFQAYLDDCHRRYSVAHCRA it is 2.41; for SKPKTFQAYLDDCHRRYSTAHCRA it is 2.44.
On the same count and under the same terms, the figure for SKPKTFQAYLDDCHRRYSHAHCRA is 2.96; for SKPKTFQAYLDDCHRRYSCAHNRA it is 2.45; for SKPKTFQAYLDDCHRRYSCAHPRA it is 2.61.
The same measure, in the same setting: the figure for SKPKTFQAYLDDCHRRYSCAHRRA is 2.63; for SKPKTFQAYLDDCHRRYSCAHYRA it is 2.17.
As to SKPKTFQAYLDDCHRRYSCAHIRA, the protein stability index turned out to be 2.69.
Same read-out and setting: the figure for SKPKTFQAYLDDCHRRYSCAHDRA is 2.94; for SKPKTFQAYLDDCHRRYSCAHLRA it is 2.37.
On to SKPKTFQAYLDDCHRRYSCAHTRA, for which the protein stability index is 2.73.
On the same count and under the same terms, the figure for SKPKTFQAYLDDCHRRYSCAHERA is 2.34.
Take SKPKTFQAYLDDCHRRYSCAHHRA: the protein stability index was 1.82.
Consider SKPKTFQAYLDDCHRRYSCAHMRA, for which the protein stability index was determined as 1.98.
On the same count and under the same terms, the figure for SKPKTFQAYLDDCHRRYSCAHWRA is 1.77; for SKPKTFQAYLDDCHRRYSCAHGRA it is 2.75; for SKPKTFQAYLDDCHRRYSCAHSRA it is 1.86.
On the same count and under the same terms, the figure for SKPKTFQAYLDDCHRRYSCAHKRA is 2.86; for SKPKTFQAYLDDCHRRYSCAHFRA it is 2.32.
Turning to SKPKTFQAYLDDCHRRYSCAHQRA, the protein stability index is 3.22.
The same measure, in the same setting: the figure for SKPKTFQAYLDDCHRRYSCAHVRA is 2.64; for SKPKTFQAYLDDCHRRYSCAHARA it is 2.04.

The next data set covers variants of B2. The data set is described as above. The note with it: c terminus: a fixed tail appended.
For the variant FVWDSFDPNINPTIGASFMTKTVQ, the protein stability index is 1.72.
Take FVADSFDPNINPTIGASFMTKTVQ: the protein stability index is 1.93.
On the same count and under the same terms, the figure for FVGDSFDPNINPTIGASFMTKTVQ is 1.49.
The same measure, in the same setting: the figure for FVKDSFDPNINPTIGASFMTKTVQ is 1.88; for FVFDSFDPNINPTIGASFMTKTVQ it is 2.57.
Same read-out and setting: the figure for FVVDSFDPNINPTIGASFMTKTVQ is 1.75.
FVSDSFDPNINPTIGASFMTKTVQ: the protein stability index came out at 2.8.
On the same count and under the same terms, the figure for FVHDSFDPNINPTIGASFMTKTVQ is 2.26.
On to FVMDSFDPNINPTIGASFMTKTVQ, for which the protein stability index amounted to 1.84.
Same read-out and setting: the figure for FVLDSFDPNINPTIGASFMTKTVQ is 1.78; for FVIDSFDPNINPTIGASFMTKTVQ it is 1.88; for FVRDSFDPNINPTIGASFMTKTVQ it is 2.54.
The same measure, in the same setting: the figure for FVCDSFDPNINPTIGASFMTKTVQ is 1.59.
On the same count and under the same terms, the figure for FVTDSFDPNINPTIGASFMTKTVQ is 1.57.
For the variant FVNDSFDPNINPTIGASFMTKTVQ, the protein stability index came out at 1.96.
Still for that read-out and setting: the figure for FVQDSFDPNINPTIGASFMTKTVQ is 1.75; for FVPDSFDPNINPTIGASFMTKTVQ it is 2.95.
The same measure, in the same setting: the figure for FVDDSFDPNINPTIGASFMTKTVQ is 2.49; for FVYDSFDPNINPTIGASFMTKTVQ it is 1.75.
On the same count and under the same terms, the figure for NVEDSFDPNINPTIGASFMTKTVQ is 4.44.
As for RVEDSFDPNINPTIGASFMTKTVQ, the protein stability index was determined as 4.24.
For VVEDSFDPNINPTIGASFMTKTVQ, the protein stability index was found to be 3.79.
Still for that read-out and setting: the figure for MVEDSFDPNINPTIGASFMTKTVQ is 3.61; for IVEDSFDPNINPTIGASFMTKTVQ it is 3.72; for WVEDSFDPNINPTIGASFMTKTVQ it is 3.41.
TVEDSFDPNINPTIGASFMTKTVQ: the protein stability index was found to be 4.36.
Regarding YVEDSFDPNINPTIGASFMTKTVQ, the protein stability index came to 2.91.
Consider HVEDSFDPNINPTIGASFMTKTVQ, for which the protein stability index worked out at 4.25.
Consider AVEDSFDPNINPTIGASFMTKTVQ, for which the protein stability index is 4.1.
Still for that read-out and setting: the figure for EVEDSFDPNINPTIGASFMTKTVQ is 4.66.
In the case of LVEDSFDPNINPTIGASFMTKTVQ, the protein stability index was 3.51.
On the same count and under the same terms, the figure for GVEDSFDPNINPTIGASFMTKTVQ is 4.4; for QVEDSFDPNINPTIGASFMTKTVQ it is 4.25.
The same measure, in the same setting: the figure for PVEDSFDPNINPTIGASFMTKTVQ is 4.42; for SVEDSFDPNINPTIGASFMTKTVQ it is 3.98.
On the same count and under the same terms, the figure for CVEDSFDPNINPTIGASFMTKTVQ is 3.75.
With DVEDSFDPNINPTIGASFMTKTVQ, the protein stability index is 4.45.
For the variant KVEDSFDPNINPTIGASFMTKTVQ, the protein stability index was found to be 4.2.
The same measure, in the same setting: the figure for FVEASFDPNINPTIGASFMTKTVQ is 1.63.
On the same count and under the same terms, the figure for FVEESFDPNINPTIGASFMTKTVQ is 2.52; for FVEKSFDPNINPTIGASFMTKTVQ it is 1.52; for FVEPSFDPNINPTIGASFMTKTVQ it is 1.78.
As to FVENSFDPNINPTIGASFMTKTVQ, the protein stability index turned out to be 2.23.
Still for that read-out and setting: the figure for FVEQSFDPNINPTIGASFMTKTVQ is 1.82.
Take FVEFSFDPNINPTIGASFMTKTVQ: the protein stability index came out at 3.14.
As for FVEMSFDPNINPTIGASFMTKTVQ, the protein stability index was 2.23.
Same read-out and setting: the figure for FVEISFDPNINPTIGASFMTKTVQ is 3.06; for FVEGSFDPNINPTIGASFMTKTVQ it is 2.02.
In the case of FVECSFDPNINPTIGASFMTKTVQ, the protein stability index came to 1.66.
On the same count and under the same terms, the figure for FVELSFDPNINPTIGASFMTKTVQ is 2.38; for FVEHSFDPNINPTIGASFMTKTVQ it is 1.36.
As to FCEDSFDPNINPTIGASFMTKTVQ, the protein stability index worked out at 3.14.
In the case of FREDSFDPNINPTIGASFMTKTVQ, the protein stability index turned out to be 3.48.
Regarding FYEDSFDPNINPTIGASFMTKTVQ, the protein stability index came to 3.19.
For FTEDSFDPNINPTIGASFMTKTVQ, the protein stability index was 3.68.
Same read-out and setting: the figure for FMEDSFDPNINPTIGASFMTKTVQ is 3.62; for FDEDSFDPNINPTIGASFMTKTVQ it is 4.03.
The same measure, in the same setting: the figure for FKEDSFDPNINPTIGASFMTKTVQ is 3.69.
On to FGEDSFDPNINPTIGASFMTKTVQ, for which the protein stability index was 3.77.
The same measure, in the same setting: the figure for FPEDSFDPNINPTIGASFMTKTVQ is 4.33.
Turning to FWEDSFDPNINPTIGASFMTKTVQ, the protein stability index was determined as 2.51.
With FFEDSFDPNINPTIGASFMTKTVQ, the protein stability index amounted to 2.89.
With FLEDSFDPNINPTIGASFMTKTVQ, the protein stability index was found to be 3.29.
For the variant FNEDSFDPNINPTIGASFMTKTVQ, the protein stability index was determined as 3.62.
Consider FHEDSFDPNINPTIGASFMTKTVQ, for which the protein stability index worked out at 3.61.
Same read-out and setting: the figure for FQEDSFDPNINPTIGASFMTKTVQ is 3.8.
As to FEEDSFDPNINPTIGASFMTKTVQ, the protein stability index is 3.95.
The same measure, in the same setting: the figure for FAEDSFDPNINPTIGASFMTKTVQ is 3.54; for FIEDSFDPNINPTIGASFMTKTVQ it is 2.81; for FSEDSFDPNINPTIGASFMTKTVQ it is 3.99.

The record behind these values is the supplement of paper PMC10567573.
